# From paper PMC8313361
# Molecular target: Recombinant rat SNX27 PDZ domain (residues 38-135) (rat) (UniProt Q8K4V4)
# Assay: ITC
row,Kd,Substance
1,49 µM,"GluN2A C-terminal peptide, S1459A phospho-deficient mutant"
2,25 µM,"GluN2A C-terminal peptide, S1459E phospho-mimetic mutant"
3,46 µM,"GluN2A C-terminal peptide, wild type"
4,14 µM,Phosphorylated GluN2A C-terminal peptide (phospho-Ser-1459)
